Results taken from patent publication US20210277125A1 (University of California, published 2021).
Positions count from the first letter of the chain named. Values belong to the binder of their own block, whether it stands above or below them.

Tests used:
[1] = target: recombinant integrin αvβ3 (UniProt P06756 31-992; P05106 27-718); assay: ELISA: plate coated with antibody (2 µg/ml), recombinant integrin added, detected with 8B8-biotin and Streptavidin-HRP
Experimental: (§1) ELISA plates were coated with antibodies (2 μg/ml), washed, blocked with BSA, and then recombinant integrins were added at the indicated concentrations. After a brief incubation at RT, wells were washed and bound integrin detected with biotin conjugated anti-αv (8B8-biotin, 1 μg/ml) followed by Streptavidin-HRP. […] Antibodies were incubated at the indicated concentrations for 15 min at 4° C. and after washing detected with anti-mouse-PE.

[2] = target: T1, recombinant integrin αvβ6 (UniProt P06756 31-992; P18564 22-707, limits assumed); assay: as above
Experimental: as §1

[3] = target: recombinant integrin αvβ5 (UniProt P06756 31-992; P18084 24-719); assay: as above
Experimental: as §1

[4] = target: recombinant integrin αvβ1 (UniProt P06756 31-992; P05556 21-728); assay: as above
Experimental: as §1

[5] = target: T2, integrin αvβ8 on human ovarian carcinoma line OVCAR3 (human, UniProt P06756 31-1048; P26012 43-769); assay: flow cytometry on OVCAR3 cells, 15 min at 4 °C, detection with anti-mouse-PE, MFI against antibody concentration, KaleidaGraph fit
T2 construct: whole, on cells; also called OVCAR3 cells
Experimental: as §1

[6] = target: T2, integrin αvβ8 on human ovarian …; assay: competition flow cytometry on OVCAR3 cells: fixed ADWA11 2.4 (chimeric, murine IgG2a CH2/CH3) with titrated fully human C6D4 F12, 15 min at 4 °C, ADWA11 2.4 detected with anti-mouse (H+L) PE
Experimental: (§2) All antibodies were produced in CHO cells. […] Primary […] were incubated at 4° C. for 15 min.

[7] = target: T3, recombinant αvβ8 ectodomain (UniProt P06756 31-992; P26012 43-684, limits assumed); assay: sandwich ELISA: antibody coated at 2 µg/ml, recombinant integrin titrated, bound integrin detected with anti-αv 8B8-biotin and streptavidin-HRP
T3 construct: extracellular domain; the ELISA and the reporter assays say only 'recombinant αvβ8'; also called recombinant integrin αvβ8; immobilized αvβ8
Experimental: ELISA plates were coated with antibodies (2 μg/ml), washed, blocked with BSA, and then recombinant integrins were added at the indicated concentrations. After a brief incubation at RT, wells were washed and bound integrin detected with biotin conjugated anti-αv (8B8-biotin, 1 μg/ml) followed by Streptavidin-HRP.

[8] = target: T3, recombinant αvβ8 ectodomain; assay: kinetic exclusion assay (KinExA)
Experimental: Affinity for the antibodies described in the Examples was determined using a kinetic exclusion assay format. KinExA (https://www.sapidyne.com). The affinity was calculated as follows: […]

[9] = target: T1, recombinant integrin αvβ6; assay: ELISA on coated integrin (1 µg/ml), antibody binding read as A450; antibody concentration not given
[10] = target: T3, recombinant αvβ8 ectodomain; assay: cell-based or functional assay
[11] = target: T2, integrin αvβ8 on human ovarian …; assay: flow cytometry on OVCAR3 cells, 15 min at 4 °C, detection with anti-mouse (H+L)-PE, MFI against nM antibody
Experimental: as §2

[12] = target: T3, recombinant αvβ8 ectodomain; assay: cell-based or functional assay; remark: listed apart in the source

T2 sequence (P06756 31-1048, chain 1 of 2): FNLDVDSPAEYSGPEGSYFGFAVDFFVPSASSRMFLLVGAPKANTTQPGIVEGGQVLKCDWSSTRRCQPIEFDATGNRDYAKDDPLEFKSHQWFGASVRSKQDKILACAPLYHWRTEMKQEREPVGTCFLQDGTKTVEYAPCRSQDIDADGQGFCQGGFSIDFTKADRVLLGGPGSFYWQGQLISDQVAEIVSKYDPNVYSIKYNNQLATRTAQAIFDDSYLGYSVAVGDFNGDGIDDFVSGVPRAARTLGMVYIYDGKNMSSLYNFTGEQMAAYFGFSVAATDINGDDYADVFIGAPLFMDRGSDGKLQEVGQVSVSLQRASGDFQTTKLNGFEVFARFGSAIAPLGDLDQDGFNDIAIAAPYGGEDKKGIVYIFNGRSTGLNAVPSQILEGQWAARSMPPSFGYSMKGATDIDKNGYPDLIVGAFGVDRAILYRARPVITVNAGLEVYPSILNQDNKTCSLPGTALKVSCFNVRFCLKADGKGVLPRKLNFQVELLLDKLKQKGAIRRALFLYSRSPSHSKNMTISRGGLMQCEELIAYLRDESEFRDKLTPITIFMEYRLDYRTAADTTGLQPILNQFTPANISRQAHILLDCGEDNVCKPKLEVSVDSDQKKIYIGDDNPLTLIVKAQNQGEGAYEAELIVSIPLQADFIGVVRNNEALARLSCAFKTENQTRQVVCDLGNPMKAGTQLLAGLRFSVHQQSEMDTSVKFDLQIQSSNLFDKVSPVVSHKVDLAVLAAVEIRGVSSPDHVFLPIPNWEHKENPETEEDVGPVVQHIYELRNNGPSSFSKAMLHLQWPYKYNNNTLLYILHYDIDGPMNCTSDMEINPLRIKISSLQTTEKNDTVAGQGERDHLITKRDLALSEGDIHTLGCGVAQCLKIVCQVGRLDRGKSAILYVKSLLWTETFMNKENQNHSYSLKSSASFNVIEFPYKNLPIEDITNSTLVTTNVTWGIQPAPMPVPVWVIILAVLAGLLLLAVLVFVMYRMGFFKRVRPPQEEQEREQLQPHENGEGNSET
T2 sequence (P26012 43-769, chain 2 of 2): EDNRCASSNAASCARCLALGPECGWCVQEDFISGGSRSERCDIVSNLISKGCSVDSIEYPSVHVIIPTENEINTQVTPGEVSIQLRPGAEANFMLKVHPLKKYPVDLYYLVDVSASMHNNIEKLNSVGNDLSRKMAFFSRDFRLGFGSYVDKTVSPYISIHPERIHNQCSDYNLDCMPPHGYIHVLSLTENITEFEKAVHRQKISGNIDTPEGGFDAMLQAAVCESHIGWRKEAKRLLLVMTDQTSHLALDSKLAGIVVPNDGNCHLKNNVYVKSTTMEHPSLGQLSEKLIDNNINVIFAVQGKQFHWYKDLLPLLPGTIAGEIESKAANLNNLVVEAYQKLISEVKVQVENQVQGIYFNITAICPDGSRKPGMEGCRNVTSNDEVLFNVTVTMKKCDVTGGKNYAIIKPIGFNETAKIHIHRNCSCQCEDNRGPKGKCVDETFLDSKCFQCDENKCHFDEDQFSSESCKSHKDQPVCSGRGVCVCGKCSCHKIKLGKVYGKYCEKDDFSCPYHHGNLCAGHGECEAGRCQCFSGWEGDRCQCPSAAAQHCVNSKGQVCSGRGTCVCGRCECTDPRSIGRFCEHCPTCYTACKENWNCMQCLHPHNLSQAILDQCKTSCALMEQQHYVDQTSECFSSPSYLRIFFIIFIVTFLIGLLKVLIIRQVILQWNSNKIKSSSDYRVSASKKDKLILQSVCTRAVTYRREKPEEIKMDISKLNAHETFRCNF
T1 sequence (P06756 31-992 limits assumed, chain 1 of 2): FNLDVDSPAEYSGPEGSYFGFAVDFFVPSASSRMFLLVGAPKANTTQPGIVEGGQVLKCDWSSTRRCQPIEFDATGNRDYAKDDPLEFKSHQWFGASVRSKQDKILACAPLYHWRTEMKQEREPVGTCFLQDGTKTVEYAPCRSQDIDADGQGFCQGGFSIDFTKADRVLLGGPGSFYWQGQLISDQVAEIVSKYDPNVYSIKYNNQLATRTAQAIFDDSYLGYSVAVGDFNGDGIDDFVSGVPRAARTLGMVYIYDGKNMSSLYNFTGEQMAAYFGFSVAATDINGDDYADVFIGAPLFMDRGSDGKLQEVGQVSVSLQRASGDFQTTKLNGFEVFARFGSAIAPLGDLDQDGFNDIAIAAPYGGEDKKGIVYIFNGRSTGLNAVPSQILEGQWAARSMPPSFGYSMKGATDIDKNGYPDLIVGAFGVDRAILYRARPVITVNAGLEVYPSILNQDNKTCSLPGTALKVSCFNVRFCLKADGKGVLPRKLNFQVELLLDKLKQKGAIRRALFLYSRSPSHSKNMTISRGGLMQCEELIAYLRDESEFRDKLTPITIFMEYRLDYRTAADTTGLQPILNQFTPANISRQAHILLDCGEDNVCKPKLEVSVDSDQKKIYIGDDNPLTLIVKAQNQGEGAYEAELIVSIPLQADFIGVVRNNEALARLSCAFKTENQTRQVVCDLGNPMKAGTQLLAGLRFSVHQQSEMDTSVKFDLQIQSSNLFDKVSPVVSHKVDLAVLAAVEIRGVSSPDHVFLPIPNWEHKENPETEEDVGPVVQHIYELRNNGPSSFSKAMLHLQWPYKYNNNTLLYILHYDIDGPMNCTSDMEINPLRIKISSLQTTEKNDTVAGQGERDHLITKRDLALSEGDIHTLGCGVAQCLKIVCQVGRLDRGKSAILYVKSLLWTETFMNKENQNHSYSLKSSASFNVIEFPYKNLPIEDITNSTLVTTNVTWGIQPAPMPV
T1 sequence (P18564 22-707 limits assumed, chain 2 of 2): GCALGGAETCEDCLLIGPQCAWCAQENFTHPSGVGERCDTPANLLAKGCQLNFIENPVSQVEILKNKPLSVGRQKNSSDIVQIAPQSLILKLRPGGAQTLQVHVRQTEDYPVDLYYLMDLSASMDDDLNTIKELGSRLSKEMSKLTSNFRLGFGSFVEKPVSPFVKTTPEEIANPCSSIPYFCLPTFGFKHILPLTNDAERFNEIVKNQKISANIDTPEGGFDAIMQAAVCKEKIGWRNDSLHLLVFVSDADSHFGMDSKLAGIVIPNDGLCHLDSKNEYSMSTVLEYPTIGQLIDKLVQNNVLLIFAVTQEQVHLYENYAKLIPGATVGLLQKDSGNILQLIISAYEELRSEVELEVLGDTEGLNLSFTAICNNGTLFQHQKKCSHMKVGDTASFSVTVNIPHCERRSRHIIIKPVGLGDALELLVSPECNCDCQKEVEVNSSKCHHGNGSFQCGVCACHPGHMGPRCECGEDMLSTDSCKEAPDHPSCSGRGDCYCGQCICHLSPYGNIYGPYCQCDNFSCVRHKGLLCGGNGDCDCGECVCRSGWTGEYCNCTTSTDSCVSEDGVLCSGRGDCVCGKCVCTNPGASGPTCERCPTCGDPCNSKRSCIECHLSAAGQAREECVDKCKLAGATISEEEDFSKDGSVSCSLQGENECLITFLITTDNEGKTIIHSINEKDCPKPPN
T3 sequence (P06756 31-992 limits assumed, chain 1 of 2): as the sequence (P06756 31-992 limits assumed, chain 1 of 2) above
T3 sequence (P26012 43-684 limits assumed, chain 2 of 2): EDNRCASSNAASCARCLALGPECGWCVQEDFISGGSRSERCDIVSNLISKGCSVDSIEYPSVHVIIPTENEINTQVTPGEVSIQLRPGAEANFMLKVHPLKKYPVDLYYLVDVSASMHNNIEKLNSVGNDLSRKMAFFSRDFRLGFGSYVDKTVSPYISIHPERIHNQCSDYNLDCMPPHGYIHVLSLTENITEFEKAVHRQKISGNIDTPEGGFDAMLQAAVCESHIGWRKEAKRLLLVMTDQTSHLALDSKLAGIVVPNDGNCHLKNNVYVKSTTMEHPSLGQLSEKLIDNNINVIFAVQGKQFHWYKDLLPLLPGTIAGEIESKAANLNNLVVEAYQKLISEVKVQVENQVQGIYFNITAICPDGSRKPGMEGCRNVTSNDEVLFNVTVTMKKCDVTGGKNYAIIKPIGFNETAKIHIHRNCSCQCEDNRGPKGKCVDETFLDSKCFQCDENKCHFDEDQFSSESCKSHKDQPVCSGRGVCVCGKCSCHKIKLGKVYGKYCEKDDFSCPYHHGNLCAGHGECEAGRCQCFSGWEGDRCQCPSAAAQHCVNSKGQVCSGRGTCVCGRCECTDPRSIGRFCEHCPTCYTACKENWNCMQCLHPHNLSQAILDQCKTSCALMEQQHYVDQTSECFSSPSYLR
Chain of recombinant integrin αvβ1 (P06756 31-992 limits assumed, chain 1 of 2): as the sequence (P06756 31-992 limits assumed, chain 1 of 2) above
Chain of recombinant integrin αvβ1 (P05556 21-728 limits assumed, chain 2 of 2): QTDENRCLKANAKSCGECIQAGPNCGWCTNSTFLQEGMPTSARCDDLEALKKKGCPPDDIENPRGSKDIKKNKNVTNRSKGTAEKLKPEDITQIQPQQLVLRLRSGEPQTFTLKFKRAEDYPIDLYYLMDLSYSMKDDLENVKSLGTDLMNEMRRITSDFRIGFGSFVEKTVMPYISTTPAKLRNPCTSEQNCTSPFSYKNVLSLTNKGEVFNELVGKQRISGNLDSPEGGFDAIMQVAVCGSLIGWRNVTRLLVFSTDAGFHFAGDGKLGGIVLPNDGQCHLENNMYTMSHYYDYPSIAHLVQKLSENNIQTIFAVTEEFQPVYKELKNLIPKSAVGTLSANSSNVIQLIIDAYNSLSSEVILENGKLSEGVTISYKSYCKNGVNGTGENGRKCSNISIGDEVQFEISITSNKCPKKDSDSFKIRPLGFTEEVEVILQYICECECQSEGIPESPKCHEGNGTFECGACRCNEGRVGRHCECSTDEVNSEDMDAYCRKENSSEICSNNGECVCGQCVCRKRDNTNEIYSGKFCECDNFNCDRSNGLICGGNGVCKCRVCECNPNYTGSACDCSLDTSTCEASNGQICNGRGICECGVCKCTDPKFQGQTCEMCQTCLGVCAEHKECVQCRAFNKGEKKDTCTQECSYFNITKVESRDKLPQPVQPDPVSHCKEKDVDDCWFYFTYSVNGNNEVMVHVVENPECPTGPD

B1: antibody with heavy chain with the C6 VH1 (D to K) mutation expressed with light chain D4 (antibody, V domains shown)
VH: QIQLVQSGAEVKKPGASVKISCKASGYTFTKYSMHWVRQAPGQGLEWVARINTETGEPTFADDFRGRFTVTLDTSTSTAYLEIRSLRSDDTAVYFCAIFYYGRDTWGQGTTLTVSS
VL: EIVMTQSPATLSVSPGERVTMSCKSSQSLLNSRSRKNYLAWYQQKPGQAPRLLIYWASTRESGVPARFSGSGSGTEFTLTISSVQSEDFAVYYCKQSYNLLSFGQGTVLEIKR
notes: Single mutant of HuC6D4
binding result [1]: no binding
binding result [2]: no binding
binding result [3]: no binding
binding result [4]: no binding
Kd [5]: 2.5 nM

B3: C6-TGFβ1RGD (antibody, V domains shown)
VH: B1 VH with K31D
VL: EIVMTQSPATLSVSPGERVTMSCKSSQSLLRRGDLATIHGNALAWYQQKPGQAPRLLIYWASTRESGVPARFSGSGSGTEFTLTISSVQSEDFAVYYCKQSYNLLSFGQGTVLEIKR
notes: also called C6-TGF-TGFβ1RGD
binding result [7]: binds

B4: HuC6D4 (antibody, V domains shown)
VH: B1 VH with K31D
VL: B1 VL
notes: Whole antibody; also called Human C6D4; Humanized C6D4
Kd [5]: 4.9 nM
Kd [8]: 0.0821 nM

B7: ADWA11 2.4 (chimeric version: humanized variable domains and CH1, murine IgG2a CH2/CH3) (antibody, V domains shown)
VH: EVQLVESGGGLVQPGGSLRLSCAASGFNIKDYYMNWVRQAPGKGLEWVGWIDPDQGNTIYEPKFQGRFTISADTSKNSAYLQMNSLRAEDTAVYYCARRLLMDYWGQGTLVTVSS
VL: DIQMTQSPSSLSASVGDRVTITCRSTKSLSHFNGNTYLFWYQQKPGKAPKRLIYYMSSLASGVPSRFSGSGSGTDFTLTISSLQPEDFATYYCQQSLEYPFTFGGGTKVEIKR
Kd [11]: 26.3 nM
IC50 of inhibition of TGF-β activation (TMLC reporter cells expressing TGF-β1/GARP on immobilized αvβ8) [12]: 57.7 µg/mL

The remaining lines, values ahead:

IC50 (read off the curve) [6]: ~0.1 µg/mL
B2: fully human C6D4 F12 (version of huC6D4F12 where CH1-3 were all human) (antibody, V domains shown)
VH: B1 VH
VL: B1 VL with N31H

binding result [9]: no binding
inhibition of TGF-β activation (immobilized αvβ8 at 1 µg/ml and TGF-β1/GARP expressing TMLC reporter cells); fold against ADWA11 2.4 [10]: ~77 fold
Kd [11]: 1.4 nM
IC50 of inhibition of TGF-β activation (TMLC reporter cells expressing TGF-β1/GARP on immobilized αvβ8) [12]: 0.75 µg/mL
Kd [5]: 3.1 nM
Kd [8]: 0.00236 nM
B5: HuC6D4F12 (antibody, V domains shown)
VH: B1 VH
VL: B1 VL with N31H
notes: Whole antibody; also called HC6D4F12; HuC6D412

binding result [1]: no binding
binding result [2]: no binding
binding result [3]: no binding
binding result [4]: no binding
Kd [5]: 4.7 nM
B6: antibody with light chain D4 VL1 (N to H) mutation expressed with heavy chain C6 (antibody, V domains shown)
VH: B1 VH with K31D
VL: B1 VL with N31H
notes: Single mutant of HuC6D4

Kd [8]: 1.3 nM
B8: C6D4 IgG 2a (antibody, V domains shown)
VH: QIQLVQSGPELKKPGETVKISCKASGYTFTDYSMHWVKQAPGKGLKWVARINTETGEPTFADDFRGRFAVSLETSASTAYLQINNLKNEDTATYFCAIFYYGRDSWGQGTTLTVSS
VL: DIVMTQSPSSLAVSAGEKVTMSCKSSQSLLNSRTRKNYLAWYQQKPGQSPRLLIYWASTRESGVPDRFTGSGSGTDFTLTISSVQAEDLAVYYCKQSYNLLSFGAGTKLELKR
notes: IgG2a
